“Also recorded” adds a separate entry of the source.
Tests used:
[1] = target: T1, endogenous ENaC in mpkCCDc14 cells (Mus musculus, UniProt Q61180+Q9WU38+Q9WU39); assay: Amiloride-sensitive short circuit current in mpkCCDc14 monolayers, Ussing chamber; format: cell-based; conditions: mpkCCDc14, increasing concentrations of peptide
T1 construct: endogenous ENaC in a mouse cortical collecting duct (mpkCCDc14) cell line; endogenous in cells; host or cells: mpkCCDc14 mouse cortical collecting duct cell line
Description: mpkCCDc14 Cell Culture—mpkCCDc14 cells were grown as previously reported (Bens, M., Vallet, V., Cluzeaud, F., Pascual-Letallec, L., Kahn, A., Rafestin-Oblin, M. E., Rossier, B. C., and Vandewalle, A. (1999), Corticosteroid-dependent sodium transport in a novel immortalized mouse collecting duct principal cell line, J. Am. Soc. Nephrol. 10, 923-934). mpkCCDc14 cells were subcultured onto permeable filter supports coated with collagen (0.4-μm pore size, 1-cm^2 surface area, Snapwell filters; Coming Inc., Acton, Mass.). Cells were kept on filters for at least 4 days in defined medium (Bens, M., Vallet, V., Cluzeaud, F., Pascual-Letallec, L., Kahn, A., Rafestin-Oblin, M. E., Rossier, B. C., and Vandewalle, A. (1999) J. Am. Soc. Nephrol. 10, 923-934 30) that was changed every second day. At least 24 h prior to the experiments, the culture medium was replaced with a minimal medium (without drugs or hormones) that contained only Dulbecco's modified Eagle's medium and Ham's F-12.
(§1) Short Circuit Current Measurements—Cell culture inserts were mounted in modified Ussing chambers (Harvard Apparatus, Holliston, Mass.), and the monolayers were continuously short-circuited with a voltage/current clamp system (Physiologic Instruments, San Diego, Calif.). A 2-mV bipolar pulse was applied periodically to measure the resistance of the monolayer. As previously described by Bridges et al. (Bridges, R. J., Newton, B. B., Pilewski, J. M., Devor, D. C., Poll, C. T., and Hall, R. L. (2001), Na+ transport in normal and CF human bronchial epithelial cells is inhibited by BAY 39-9437, Am. J. Physiol. 281, L16-L23 32, Na^+ transport in normal and CF human bronchial epithelial cells is inhibited by BAY 39-9437), the bath solution contained (in mM) 120 NaCl, 25 NaHCO3, 3.3 KH2PO4, 0.8 K2HPO4, 1.2 MgCl2, 1.2 CaCl2, and 10 glucose. The pH of this solution was 7.4 when gassed with a mixture of 95% O2-5% CO2 at 37° C.
(FIG. 6A) mpkCCDc14cells cultured on permeable membrane supports and mounted in a modified Ussing chamber were continuously short-circuited by a voltage clamp amplifier (Physiologic Instruments, San Diego, Calif.). Transepithelial resistance was monitored by applying a 4 mV bipolar pulse every 60 seconds. Where indicated, a 43 residue peptide corresponding to E144-K186 of mouse γ-ENaC (γ-peptide) was added to the apical chamber at a final concentration of 3 μM. […] Data presented as mean +/−standard error (n=8).
(§2) Vectors and Cell Culture—Wild-type, C-terminal and double epitope tagged mouse ENaC subunit cDNAs were previously described (Hughey, R. P., Mueller, G. M., Bruns, J. B., Kinlough, C. L., Poland, P. A., Harkleroad, K. L., Carattino, M. D., and Kleyman, T. R. (2003) J Biol Chem 278, 37073-37082 and Ahn, Y. J., Brooker, D. R., Kosari, F., Harte, B. J., Li, J., Mackler, S. A., and Kleyman, T. R. (1999), Cloning and functional expression of the mouse epithelial sodium channel, Am J Physiol 277, F121-129). The γ subunit mutations were generated in pcDNA3.1 (+) using a standard two-step PCR method. A cDNA clone (IMAGE #: 3600399) encoding full length mouse prostasin was obtained from Open Biosystems (Huntsville, Ala.) and sub-cloned into pcDNA3.1 (+) (Invitrogen, Carlsbad, Calif.). MDCK type 1 cells were a gift from Barry M. Gumbiner (Memorial Sloan-Kettering Cancer Center, New York) and were cultured as previously described (Lavelle, J. P., Negrete, H. O., Poland, P. A., Kinlough, C. L., Meyers, S. D., Hughey, R. P., and Zeidel, M. L. (1997), Low permeabilities of MDCK cell monolayers: a model barrier epithelium, Am J Physiol 273, F67-75). CCD (mpkCCDc14) cells were a gift from Alain Vandewalle (Institut National de la Santéet de la Recherche Médicale, Paris, France) and were cultured as previously described (Bens, M., Vallet, V., Cluzeaud, F., Pascual-Letallec, L., Kahn, A., Rafestin-Oblin, M. E., Rossier, B. C., and Vandewalle, A. (1999) J Am Soc Nephrol 10, 923-934).

[2] = target: T2, endogenous ENaC in HAE cells (Homo sapiens, UniProt P37088+P51168+P51170); assay: Amiloride-sensitive short circuit current in primary human airway epithelial (HAE) cell monolayers, Ussing chamber; format: cell-based; conditions: HAE
T2 construct: endogenous in cells; host or cells: primary human airway (bronchial) epithelial cells from transplant or donor lungs
From the text: Primary Cultures of HAE Cells—HAE cells were obtained from excess pathological tissue remaining after lung transplantation or from organ donor lungs deemed not suitable for transplantation under a protocol approved by the University of Pittsburgh […] Review Board. All cells were isolated from second through sixth generation bronchi and grown on permeable Transwell supports (Coming Inc.) as previously described (Devor, D. C., and Pilewski, J. M. (1999), UTP inhibits Na^+ absorption in wild-type and DeltaF508 CFTR-expressing human bronchial epithelia, Am. J. Physiol. 276, C827-C837 31. ).
as §1
Primary cultures of HAE cells grown on permeable membrane supports and mounted in modified Ussing chambers were continuously short-circuited by a voltage clamp amplifier (Physiologic Instruments, San Diego, Calif.). Monolayers were exposed to increasing concentrations of either the γ-peptide (closed circles) or a scrambled peptide (open circles). […] (n=8-9).
as §2, with “923-934). HAE cells were isolated and cultured as described (Devor, D. C., Bridges, R. J., and Pilewski, J. M. (2000), Pharmacological modulation of ion transport across wild-type and DeltaF508 CFTR-expressing human bronchial epithelia, Am J Physiol Cell Physiol 279, C461-479). […]” for “923-934).”

[3] = target: T1, endogenous ENaC in mpkCCDc14 cells; assay: Amiloride-sensitive short circuit current in mpkCCDc14 monolayers, Ussing chamber; format: cell-based; conditions: peptide 50 μM
[4] = target: wild-type αβγ mouse epithelial sodium channel (ENaC) expressed in Xenopus oocytes (mouse, UniProt Q9WU38 1-638); assay: cell-based or functional assay
[5] = target: endogenous ENaC in the mouse cortical collecting duct cell line mpkCCDc14 (mouse, UniProt Q9WU38 1-638); assay: cell-based or functional assay
[6] = target: endogenous ENaC in primary cultures of human airway epithelial (HAE) cells (human, UniProt P51168 1-640); assay: cell-based or functional assay
Chain of endogenous ENaC in primary cultures of human airway epithelial (HAE) cells (chain, as listed by the source, chain 1 of 3): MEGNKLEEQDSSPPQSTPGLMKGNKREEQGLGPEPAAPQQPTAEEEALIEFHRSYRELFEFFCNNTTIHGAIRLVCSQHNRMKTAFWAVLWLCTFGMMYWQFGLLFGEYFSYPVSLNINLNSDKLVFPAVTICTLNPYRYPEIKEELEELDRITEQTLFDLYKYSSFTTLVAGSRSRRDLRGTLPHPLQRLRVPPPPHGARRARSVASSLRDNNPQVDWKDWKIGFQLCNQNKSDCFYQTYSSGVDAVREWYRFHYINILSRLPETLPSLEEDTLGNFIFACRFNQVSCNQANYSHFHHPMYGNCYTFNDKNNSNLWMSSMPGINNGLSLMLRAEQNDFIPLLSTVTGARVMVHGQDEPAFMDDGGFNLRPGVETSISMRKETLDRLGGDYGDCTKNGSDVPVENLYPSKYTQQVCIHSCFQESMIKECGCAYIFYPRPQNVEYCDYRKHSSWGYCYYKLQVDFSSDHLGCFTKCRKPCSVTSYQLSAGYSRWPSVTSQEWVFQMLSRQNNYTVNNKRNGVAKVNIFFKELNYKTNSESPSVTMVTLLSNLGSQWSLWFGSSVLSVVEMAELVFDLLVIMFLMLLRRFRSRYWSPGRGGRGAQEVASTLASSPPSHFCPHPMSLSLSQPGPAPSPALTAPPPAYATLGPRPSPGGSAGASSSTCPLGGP
Chain of endogenous ENaC in primary cultures of human airway epithelial (HAE) cells (P51168 whole entry, chain 2 of 3): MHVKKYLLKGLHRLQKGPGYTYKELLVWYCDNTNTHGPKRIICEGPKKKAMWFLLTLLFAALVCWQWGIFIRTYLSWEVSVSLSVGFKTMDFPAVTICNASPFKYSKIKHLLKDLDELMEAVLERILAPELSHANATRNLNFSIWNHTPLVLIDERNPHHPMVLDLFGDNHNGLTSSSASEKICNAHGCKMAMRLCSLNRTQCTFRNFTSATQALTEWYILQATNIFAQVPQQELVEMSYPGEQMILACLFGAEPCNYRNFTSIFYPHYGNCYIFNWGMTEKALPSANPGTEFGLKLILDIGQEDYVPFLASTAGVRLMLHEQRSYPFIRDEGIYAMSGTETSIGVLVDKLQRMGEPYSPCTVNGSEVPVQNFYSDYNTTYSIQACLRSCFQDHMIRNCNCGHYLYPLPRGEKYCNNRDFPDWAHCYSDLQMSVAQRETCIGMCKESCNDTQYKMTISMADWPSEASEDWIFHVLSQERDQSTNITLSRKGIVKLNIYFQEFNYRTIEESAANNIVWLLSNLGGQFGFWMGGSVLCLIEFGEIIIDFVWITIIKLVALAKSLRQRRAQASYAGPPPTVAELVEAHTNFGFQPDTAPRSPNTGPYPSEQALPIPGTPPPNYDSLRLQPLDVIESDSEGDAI
Chain of endogenous ENaC in primary cultures of human airway epithelial (HAE) cells (chain, as listed by the source, chain 3 of 3): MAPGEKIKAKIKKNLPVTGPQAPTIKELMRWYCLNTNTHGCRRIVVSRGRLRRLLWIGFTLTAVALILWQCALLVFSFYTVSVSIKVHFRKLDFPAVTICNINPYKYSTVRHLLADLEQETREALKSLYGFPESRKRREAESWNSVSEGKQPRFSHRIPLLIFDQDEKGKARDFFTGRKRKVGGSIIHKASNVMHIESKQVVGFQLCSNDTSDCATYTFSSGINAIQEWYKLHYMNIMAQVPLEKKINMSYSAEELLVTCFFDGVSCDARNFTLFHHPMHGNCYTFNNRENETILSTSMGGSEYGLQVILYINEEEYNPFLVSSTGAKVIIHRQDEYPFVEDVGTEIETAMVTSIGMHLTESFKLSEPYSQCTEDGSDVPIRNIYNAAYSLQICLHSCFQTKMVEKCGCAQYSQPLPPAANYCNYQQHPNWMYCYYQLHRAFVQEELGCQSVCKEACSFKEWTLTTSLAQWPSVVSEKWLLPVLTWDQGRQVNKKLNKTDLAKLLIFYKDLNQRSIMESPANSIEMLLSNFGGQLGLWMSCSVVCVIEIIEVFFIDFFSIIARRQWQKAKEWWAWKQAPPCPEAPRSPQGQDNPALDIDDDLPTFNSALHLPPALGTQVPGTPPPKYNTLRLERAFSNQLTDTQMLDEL

Chain of endogenous ENaC in the mouse cortical collecting duct cell line mpkCCDc14 (chain, as listed by the source, chain 1 of 3): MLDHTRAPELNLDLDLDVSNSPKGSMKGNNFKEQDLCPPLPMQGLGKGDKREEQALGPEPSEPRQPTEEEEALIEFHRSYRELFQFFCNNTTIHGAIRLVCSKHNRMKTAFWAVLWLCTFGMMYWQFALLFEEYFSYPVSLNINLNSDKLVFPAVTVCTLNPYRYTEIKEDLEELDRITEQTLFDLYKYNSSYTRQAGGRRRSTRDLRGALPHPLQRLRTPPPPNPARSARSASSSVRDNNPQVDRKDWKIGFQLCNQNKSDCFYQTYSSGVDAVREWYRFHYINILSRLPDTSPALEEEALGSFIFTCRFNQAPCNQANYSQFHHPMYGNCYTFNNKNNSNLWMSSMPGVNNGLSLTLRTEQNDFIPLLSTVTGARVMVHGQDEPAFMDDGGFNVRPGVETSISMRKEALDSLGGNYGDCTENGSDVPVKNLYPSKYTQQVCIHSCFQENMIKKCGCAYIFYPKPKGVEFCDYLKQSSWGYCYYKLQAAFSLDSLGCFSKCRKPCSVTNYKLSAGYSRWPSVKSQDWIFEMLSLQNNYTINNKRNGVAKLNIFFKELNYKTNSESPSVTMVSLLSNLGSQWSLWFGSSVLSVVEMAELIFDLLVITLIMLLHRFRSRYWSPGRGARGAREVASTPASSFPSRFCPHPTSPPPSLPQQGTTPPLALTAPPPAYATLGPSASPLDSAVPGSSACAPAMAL
Chain of endogenous ENaC in the mouse cortical collecting duct cell line mpkCCDc14 (Q9WU38 whole entry, chain 2 of 3): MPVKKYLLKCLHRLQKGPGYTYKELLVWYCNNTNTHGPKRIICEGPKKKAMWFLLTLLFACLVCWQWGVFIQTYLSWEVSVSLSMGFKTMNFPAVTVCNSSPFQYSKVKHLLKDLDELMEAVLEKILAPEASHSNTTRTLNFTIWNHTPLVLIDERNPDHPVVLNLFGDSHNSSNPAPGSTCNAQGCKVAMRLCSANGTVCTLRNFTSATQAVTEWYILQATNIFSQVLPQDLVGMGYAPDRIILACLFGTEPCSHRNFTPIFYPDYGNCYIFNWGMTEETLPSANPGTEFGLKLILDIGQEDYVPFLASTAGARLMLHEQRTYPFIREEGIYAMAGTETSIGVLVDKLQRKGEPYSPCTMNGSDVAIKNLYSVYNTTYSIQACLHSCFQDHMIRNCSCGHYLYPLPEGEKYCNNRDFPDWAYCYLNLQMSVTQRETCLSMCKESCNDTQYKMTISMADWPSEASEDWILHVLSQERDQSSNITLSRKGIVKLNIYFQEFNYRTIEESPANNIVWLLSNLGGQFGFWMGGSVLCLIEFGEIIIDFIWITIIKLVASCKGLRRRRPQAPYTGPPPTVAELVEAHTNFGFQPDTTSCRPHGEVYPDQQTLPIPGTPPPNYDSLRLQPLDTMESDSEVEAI
Chain of endogenous ENaC in the mouse cortical collecting duct cell line mpkCCDc14 (chain, as listed by the source, chain 3 of 3): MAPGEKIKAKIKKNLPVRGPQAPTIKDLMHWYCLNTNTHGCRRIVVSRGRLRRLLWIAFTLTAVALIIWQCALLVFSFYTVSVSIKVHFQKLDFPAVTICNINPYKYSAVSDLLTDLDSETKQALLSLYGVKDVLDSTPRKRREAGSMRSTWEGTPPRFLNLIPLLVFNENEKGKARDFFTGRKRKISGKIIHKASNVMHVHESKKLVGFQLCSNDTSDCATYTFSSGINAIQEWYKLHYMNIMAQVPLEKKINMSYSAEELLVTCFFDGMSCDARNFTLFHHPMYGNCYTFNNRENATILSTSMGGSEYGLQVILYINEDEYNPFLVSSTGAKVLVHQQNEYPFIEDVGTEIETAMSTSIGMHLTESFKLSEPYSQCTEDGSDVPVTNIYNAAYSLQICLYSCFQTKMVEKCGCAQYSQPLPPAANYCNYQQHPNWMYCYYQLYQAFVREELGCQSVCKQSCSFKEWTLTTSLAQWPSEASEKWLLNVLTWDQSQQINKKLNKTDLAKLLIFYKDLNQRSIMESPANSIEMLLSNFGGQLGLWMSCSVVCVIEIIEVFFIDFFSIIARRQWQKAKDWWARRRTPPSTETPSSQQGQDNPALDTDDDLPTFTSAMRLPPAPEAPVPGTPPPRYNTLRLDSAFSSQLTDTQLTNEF
Chain of wild-type αβγ mouse epithelial sodium channel (ENaC) expressed in Xenopus oocytes (Q9WU38 whole entry, chain 2 of 3): as the sequence (Q9WU38 whole entry, chain 2 of 3) above

## FKGFVGKEALREILTFWLRFNNTEMDSKPLRTRANPPSKGGRE (Ac-FKGFVGKEALREILTFWLRFNNTEMDSKPLRTRANPPSKGGRE-NH2) [scrambled peptide, reference compound]
[1]
  inhibition of amiloride sensitive short circuit currents: minimal effect; also recorded: failed to inhibit
[2]; increasing concentrations of peptide
  inhibition of amiloride sensitive short circuit currents: minimal effect; also recorded: failed to inhibit; also recorded: only a slight inhibition

## PLTQPRPRLADHNPLSARRRPLPAGP (Ac-PLTQPRPRLADHNPLSARRRPLPAGP-NH2) [SCR, reference compound]
[3]
  inhibition of Isc: did not inhibit
[2]; peptide 50 μM
  inhibition of Isc: did not inhibit

B1: 8-residue fragment LPHPLQRL of α-26 (peptide)
peptide: LPHPLQRL
[4]
  IC50, inhibition of mouse ENaCs expressed in oocytes: ~1 µM

B2: α-26, synthetic 26-mer peptide representing the tract Asp206-Arg231 released from the mouse ENaC α subunit by furin cleavage (peptide)
peptide: Ac-DLRGALPHPLQRLRTPPPPNPARSAR-NH2
[5]
  IC50, inhibition of amiloride-sensitive short circuit current (Isc) in mpkCCDc14 monolayers (FIG. 5B): 100 µM
[4]
  IC50, inhibition of amiloride-sensitive whole cell Na+ current in oocytes, holding potential -20 mV: 2.9 µM
  IC50, inhibition of amiloride-sensitive whole cell Na+ current in oocytes, holding potential -100 mV: 2.9 µM
  IC50, inhibition of amiloride-sensitive whole cell Na+ current, two-electrode voltage clamp in Xenopus oocytes (FIG. 3A; holding potential -60 mV, value repeated in the same paragraph): 2.8 µM
[6]
  IC50, inhibition of amiloride-sensitive short circuit current (Isc) in HAE monolayers (FIG. 5A): 46 µM

B3: γ-43, synthetic 43-residue peptide corresponding to the tract Glu144-Lys186 of mouse γ ENaC (peptide)
peptide: Ac-EAGSMRSTWEGTPPRFLNLIPLLVFNENEKGKARDFFTGRKRK-NH2
[5]
  IC50, inhibition of amiloride sensitive short circuit currents in mpkCCDc14 cells (FIG. 6B): 3.2 µM
  IC50, inhibition of short circuit currents in mouse CCD cells (FIG. 18B): 3.2 µM
[6]
  IC50, inhibition of amiloride sensitive short circuit currents in primary HAE cells (FIG. 7): 1.9 µM
  IC50, inhibition of short circuit currents in primary cultures of HAE cells (FIG. 18C): 2 µM

Reference: US20070149456A1, “Epithelial sodium channel inhibiting agents and uses therefor” (University of Pittsburgh, priority 2005, published 2007)
